# Starred links: 1 amine or outer side, 2 acyl side, 3 side chain; linkers in the order of their positions; H or OH if unused. Non-standard residues stand in square brackets, D forms with d. No end group written: not given here. Trimesoyl = O=C(c1cc(C(=O)[*:2])cc(C(=O)[*:3])c1)[*:1]; F2Pmp = N[C@@H](Cc1ccc(C(F)(F)P(=O)(O)O)cc1)C(=O)O; Phe(4-F) = N[C@@H](Cc1ccc(F)cc1)C(=O)O; dPhe(4-F) = N[C@H](Cc1ccc(F)cc1)C(=O)O; 2Nal = N[C@@H](Cc1ccc2ccccc2c1)C(=O)O; Phg = N[C@H](C(=O)O)c1ccccc1; Pip = O=C(O)[C@@H]1CCCCN1; Nle = CCCC[C@H](N)C(=O)O; Dap = NC[C@H](N)C(=O)O; Sar = CNCC(=O)O
# Columns and labels:
# [1] = target: ybbR-tagged PTP1B catalytic domain (amino acids 1-321) (UniProt P18031); experiment: cell-based or functional assay
# Pin1 (human) [2] = target: Pin1 (human) (UniProt Q13526); experiment: cell-based or functional assay
# [3] = target: full-length human S16A/Y23A mutant Pin1 (human) (UniProt Q13526); experiment: fluorescence anisotropy, FITC-labeled peptide
# Pin1 (human) [4] = target: Pin1 (human) (UniProt Q13526); experiment: fluorescence anisotropy, FITC-labeled peptide
# [5] = target: MBP-Pin1 (S16A/Y23A mutant Pin1 as a maltose-binding protein fusion at the N-terminus) (UniProt Q13526); experiment: FA of TMR-labeled peptide released from the bead, 5 µM MBP-Pin1
# Chain of ybbR-tagged PTP1B catalytic domain (amino acids 1-321) (P18031 other isoform, or with tags, fused parts or gaps limits assumed): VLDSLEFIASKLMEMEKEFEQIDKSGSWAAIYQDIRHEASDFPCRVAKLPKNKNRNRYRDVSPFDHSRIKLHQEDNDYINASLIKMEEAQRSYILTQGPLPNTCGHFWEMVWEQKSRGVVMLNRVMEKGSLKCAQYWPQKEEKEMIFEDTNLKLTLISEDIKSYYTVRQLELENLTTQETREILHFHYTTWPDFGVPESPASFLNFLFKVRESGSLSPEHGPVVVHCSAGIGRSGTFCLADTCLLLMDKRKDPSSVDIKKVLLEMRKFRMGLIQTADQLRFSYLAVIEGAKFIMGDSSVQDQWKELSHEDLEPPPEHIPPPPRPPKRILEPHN
binder,measurement,setting,value
cyclo([dT][dN][dV][F2Pmp][dA]RRRR[2Nal]FQ) (SMILES CC(C)[C@H]1NC(=O)[C@@H](CC(N)=O)NC(=O)[C@@H]([C@H](C)O)NC(=O)[C@H](CCC(N)=O)NC(=O)[C@H](Cc2ccccc2)NC(=O)[C@H](Cc2ccc3ccccc3c2)NC(=O)[C@H](CCCNC(=N)N)NC(=O)[C@H](CCCNC(=N)N)NC(=O)[C@H](CCCNC(=N)N)NC(=O)[C@H](CCCNC(=N)N)NC(=O)[C@@H](C)NC(=O)[C@H](Cc2ccc(C(F)(F)P(=O)(O)O)cc2)NC1=O) [Monocyclic Inhibitor 1],IC50 (inhibition of pNPP hydrolysis),[1],100 nM
"Trimesoyl-[dPhe(4-F)][Phe(4-F)][dT][Pip][2Nal]RA[dF][Dap]F[2Nal]RRRR[Dap]K (linker (positions not given here) via Trimesoyl; not fully specified (C-terminus, bridges); printed as bicyclo[Tm-(D-4-Fpa-Fpa-D-Thr-Pip-Nal-Arg-Ala-D-Phe)-Dap-(Phe-Nal-Arg-Arg-Arg-Arg-Dap)]-Lys) [peptide 37 (Table 18)]","IC50 (HeLa cell growth, MTT assay)",Pin1 (human) [2],1 µM
same,IC50 (cis-trans isomerase activity toward Suc-Ala-Glu-Pro-Phe-pNA),Pin1 (human) [2],170 nM
same,"PML protein level in HeLa cells (western blot), at 0.2 µM inhibitor",Pin1 (human) [2],1.8 fold
same,"PML protein level in HeLa cells (western blot), at ˜1 µM inhibitor",Pin1 (human) [2],3.3 fold
XAXXXXRAAXFXRRRRXK (not fully specified; bicyclo[Tm(D-Ala-Sar-D-pThr-Pip-Nal-Arg-Ala-D-Ala)-Dap-(Phe-Nal-Arg-Arg-Arg-Arg-Dap)]-Lys-NH2) [Pin1 inhibitor 7],fold improvement of potency against inhibitor 6,[3],2 fold
same,"IC50 (HeLa cell growth, MTT assay)",Pin1 (human) [2],1.8 µM
same,"PML protein level in HeLa cells (western blot), at 5 µM",Pin1 (human) [2],3.1 fold
XHXTXXRAAXFXRRRRXK (not fully specified; bicyclo[Tm-(His-Phg-D-Thr-Pip-Nal-Arg-Ala-D-Ala)-Dap-(Phe-Nal-Arg-Arg-Arg-Arg-Dap)]-Lys) [peptide 8 (Table 18)],Kd,Pin1 (human) [4],1 µM
same,FA increase relative to the no-protein control,[5],> 50%
"Trimesoyl-[dF][Phe(4-F)][dT][Pip][2Nal]RA[dA][Dap]F[2Nal]RRRR[Dap]K (linker (positions not given here) via Trimesoyl; not fully specified (C-terminus, bridges); printed as bicyclo[Tm-(D-Phe-Fpa-D-Thr-Pip-Nal-Arg-Ala-D-Ala)-Dap-(Phe-Nal-Arg-Arg-Arg-Arg-Dap)]-Lys) [peptide 4 (Table 18)]",Kd,Pin1 (human) [4],1 µM
XXIEXXRAAXFXRRRRXK (not fully specified; bicyclo[Tm-(Mpa-Ile-D-Glu-Pip-Nal-Arg-Ala-D-Ala)-Dap-(Phe-Nal-Arg-Arg-Arg-Arg-Dap)]-Lys) [peptide 7 (Table 18)],Kd,Pin1 (human) [4],1 µM
same,FA increase relative to the no-protein control,[5],> 50%
XXHEXXRAAXFXRRRRXK (not fully specified; bicyclo[Tm-(Phg-His-D-Glu-Pip-Nal-Arg-Ala-D-Ala)-Dap-(Phe-Nal-Arg-Arg-Arg-Arg-Dap)]-Lys) [peptide 6 (Table 18)],Kd,Pin1 (human) [4],1 µM
same,FA increase relative to the no-protein control,[5],> 50%
AXXXXYQK (cyclo(D-Ala-Sar-D-pThr-Pip-Nal-Tyr-Gln)-Lys-NH2) [Pin1 inhibitor 5],Kd,Pin1 (human) [4],0.24 µM
"Trimesoyl-P[Sar][dD][Pip][2Nal]RR[dF][Dap]F[2Nal]RRRR[Dap]K (linker (positions not given here) via Trimesoyl; not fully specified (C-terminus, bridges); printed as bicyclo[Tm-(Pro-Sar-D-Asp-Pip-Nal-Arg-Arg-D-Phe)-Dap-(Phe-Nal-Arg-Arg-Arg-Arg-Dap)]-Lys) [peptide 22 (Table 18)]",fold increase of Pin1 inhibitory activity against the D-Ala parent,Pin1 (human) [4],2 fold
cyclo(IP[Phg][F2Pmp][Nle]RRRR[2Nal]FQ) [Monocyclic Inhibitor 3],IC50 (inhibition of pNPP hydrolysis),[1],200 nM

# Reference: US20200385427A1
